Test results published in publication PMC9666535.

Columns and labels:
[1] = target: PCNA (Homo sapiens) (UniProt P12004); details: cited from earlier work
[2] = target: PCNA WT (UniProt P12004); assay: single-molecule FRET of DNA bending (TIRF); internally labeled double flap DNA on the surface, PCNA pre-loaded by RFC and trapped on it (Sub#12) or absent (Sub#13); Polδ Exo^− 250 nM in solution; 50 ms resolution; 50 mM HEPES-KOH pH 7.5, 100 mM KCl, 10 mM MgCl2; details: other: single-molecule FRET of DNA bending (TIRF)
[3] = target: FEN1 D181A•PCNA complex prebound on the nick product (FEN1•PCNA•NP) (human) (UniProt P39748); assay: other fluorescence titration; apparent; FeSQ quenching of Cy3 on the DNA: FEN1 D181A (250 nM) prebound to PCNA-loaded nick DNA (Sub#28), Polδ titrated; quadratic fit (Eq. 1); 22 °C, 50 mM HEPES-KOH pH 7.5, 100 mM KCl, 10 mM MgCl2, 1 mM ATP
Chain of FEN1 D181A•PCNA complex prebound on the nick product (FEN1•PCNA•NP) (human) (P39748 2-380 D181A, chain 1 of 2): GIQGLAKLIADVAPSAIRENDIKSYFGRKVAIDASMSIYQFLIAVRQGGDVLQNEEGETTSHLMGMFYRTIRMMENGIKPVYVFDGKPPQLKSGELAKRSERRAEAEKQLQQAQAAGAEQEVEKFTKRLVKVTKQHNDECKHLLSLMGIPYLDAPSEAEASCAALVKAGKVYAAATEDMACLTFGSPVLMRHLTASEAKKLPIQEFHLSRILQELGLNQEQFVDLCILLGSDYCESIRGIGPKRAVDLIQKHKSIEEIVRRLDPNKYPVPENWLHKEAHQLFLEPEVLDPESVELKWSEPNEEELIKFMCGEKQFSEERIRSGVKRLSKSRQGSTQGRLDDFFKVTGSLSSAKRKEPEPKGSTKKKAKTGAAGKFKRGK
Chain of FEN1 D181A•PCNA complex prebound on the nick product (FEN1•PCNA•NP) (human) (P12004 whole entry, chain 2 of 2, further chain): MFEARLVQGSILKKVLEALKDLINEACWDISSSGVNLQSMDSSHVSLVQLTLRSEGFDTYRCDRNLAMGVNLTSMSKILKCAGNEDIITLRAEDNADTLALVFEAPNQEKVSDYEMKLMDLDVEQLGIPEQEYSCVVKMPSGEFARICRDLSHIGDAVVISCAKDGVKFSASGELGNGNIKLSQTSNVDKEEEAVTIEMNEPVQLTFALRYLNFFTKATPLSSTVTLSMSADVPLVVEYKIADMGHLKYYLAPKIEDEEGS

Chain of PCNA (Homo sapiens) (P12004 whole entry): as the sequence (P12004 whole entry, chain 2 of 2, further chain) above
Chain of PCNA WT (P12004 whole entry): as the sequence (P12004 whole entry, chain 2 of 2, further chain) above
Chain of FEN1 (P39748 whole entry): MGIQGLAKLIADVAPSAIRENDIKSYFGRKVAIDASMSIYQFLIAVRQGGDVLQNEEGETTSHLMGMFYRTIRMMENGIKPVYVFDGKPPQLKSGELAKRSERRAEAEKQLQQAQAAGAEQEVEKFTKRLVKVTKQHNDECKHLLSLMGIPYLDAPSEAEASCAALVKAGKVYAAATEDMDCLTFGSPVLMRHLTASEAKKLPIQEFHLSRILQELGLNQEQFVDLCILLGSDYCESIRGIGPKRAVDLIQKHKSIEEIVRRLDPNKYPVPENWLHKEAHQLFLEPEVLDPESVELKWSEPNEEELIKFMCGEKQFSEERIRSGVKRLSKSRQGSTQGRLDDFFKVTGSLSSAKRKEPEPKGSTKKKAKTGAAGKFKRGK

Substance: FEN1 (from UniProt P39748)
- Kd [1]: 0.07 µM

Substance: Polδ Exo^− (D515V in p125)
- assembly yield of the Polδ•PCNA complex [2]: the assembly yield was only ~70%

Substance: Polδ Exo^− (D515V in p125) (from UniProt P28340 1-1107; Q9HCU8 1-107) (complex)
- Kd [3]: 0.0045 µM
